Measured values from IntAct's records for PubMed 17070805.

Target: T1, npl4_human NPLOC4 (UniProt Q8TAT6)
T1 sequence: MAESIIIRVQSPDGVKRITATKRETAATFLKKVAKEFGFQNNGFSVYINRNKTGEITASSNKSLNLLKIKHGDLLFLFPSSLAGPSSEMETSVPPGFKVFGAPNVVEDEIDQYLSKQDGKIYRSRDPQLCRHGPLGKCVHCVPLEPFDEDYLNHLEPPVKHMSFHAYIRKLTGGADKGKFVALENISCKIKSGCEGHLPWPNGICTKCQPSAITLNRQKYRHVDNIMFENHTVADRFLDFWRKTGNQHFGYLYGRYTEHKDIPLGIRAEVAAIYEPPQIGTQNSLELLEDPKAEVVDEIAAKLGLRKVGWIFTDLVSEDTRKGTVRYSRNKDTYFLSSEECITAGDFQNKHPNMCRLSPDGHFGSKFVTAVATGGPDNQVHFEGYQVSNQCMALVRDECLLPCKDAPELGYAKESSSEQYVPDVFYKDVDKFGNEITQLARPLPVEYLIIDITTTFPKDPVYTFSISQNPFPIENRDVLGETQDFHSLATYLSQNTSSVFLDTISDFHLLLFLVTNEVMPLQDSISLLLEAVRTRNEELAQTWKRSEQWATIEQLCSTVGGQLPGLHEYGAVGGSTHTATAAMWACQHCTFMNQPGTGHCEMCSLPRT

- effect of a mutation on the interaction: decreasing interaction
Substance: Polyubiquitin-C (Homo sapiens) (from UniProt P0CG48) I44A
